# Where a SMILES comes first, the peptide text is derived from it. The star is where a group is joined. Cbz = O=C(OCc1ccccc1)*; CH2Cl = ClC*
# T1: internally quenched fluorescent substrate Ac-NAHN(K-Dnp)PLDLAAVE(K-Mca)PSING-OH
# T1 chain: AHNKPLDLAAVEKPSING
# What was measured:
# [1] = system: wheat D1 protease; test: In vitro high-throughput assay with LF-1 thylakoid membrane fragments containing pre-D1, detecting the mature D1 enzyme product; type: biochemical; details: 7 mM Z-LDLA-CMK; D1 protease pre-incubated with it for 1 h at pH 7.0; same assay without inhibitor 0.141 OD; without D1P 0.023 OD
# Description: The assay was capable of detecting both type of products. Because this assay used isolated thylakoid membrane containing the D1 pre-protein substrate the assay could be run at a pH similar to that found in the whole plant.
# The PSII-enriched thylakoid membrane fragment was isolated from Scenedesmus LF-1 mutant cells using a mild TRITON X-100-treatment as follows:
# Scenedesmus cells were broken in a “bead-beater” (Biospec Products, Bartlesville, Okla.) in an ice-water bath with 1-mm diameter glass beads using 10 bursts of 45 sec each. […]
# When using the type 2 HRP conjugated primary antibody […] of colorimetric substrate, TMB (Kirkgaard & Perry Laboratories, Inc., Gaithersburg, Md.) or fluorescent substrate, N-acetyl-3,7-dihydroxyphenoxazine (A6550, Molecular Probes, Inc., Eugene, Oreg.) or chemiluminescence substrate, BM Chemiluminescence ELISA Reagent (Boehringer Mannheim Corp., Indianapolis, Ind.) was added to each well. […] Next the substrate was transfered to a regular plastic 96-well microtiter plate using the manifold and vacuum and then read for absorption or fluorescence or chmiluminescence intensity. […]
# [2] = target: D1 pre-protein (unprocessed D1 polypeptide) of the Scenedesmus obliquus LF-1 mutant, in PSII core complexes or thylakoid membrane fragments
# [3] = target: T1, internally quenched fluorescent …
molecule,measurement,setting,value
"CC(C)C[C@H](NC(=O)OCc1ccccc1)C(=O)N[C@@H](CC(=O)O)C(=O)N[C@@H](CC(C)C)C(=O)N[C@@H](C)C(=O)CCl [Z-LDLA-CMK, Z-Leu-Asp-Leu-Ala-CH2Cl] (Cbz-LDLA-CH2Cl)","Type2 AB and TMB, Absorption change, With D1P",[1],0.081 OD
D1 protease from Scenedesmus obliquus (protein) VTSEQLLFLEAWRAVDRAYVDKSFNGQSWFKLRETYLKKEPMDRRAQTYDAIRKLLAVLDDPFTRFLEPSRLAALRRGTAGSVTGVGLEITYDGGSGKDVVVLTPAPGGPAEKAGARAGDVIVTVDGTAVKGLSLYDVSDLLQGEADSQVEVVLHAPGAPSNTRTLQLTRQKVTINPVTFTTCSNVAAAALPPGAAKQQLGYVRLATFNSNTTAAAQQAFTELSKQGVAGLVLDIRNNGGGLFPAGVNVARMLVDRGDLVLIADSQGIRDIYSADGNSIDSATPLVVLVNRGTASASEVLAGALKDSKRGLIAGERTFGKGLIQTVVDLSDGSGVAVTVARYQTPAGVDINKIGVSPDVQLDPEVLPTDLEGVCRVLGSDAAPRLFG,"microtiter plate ELISA of D1 protease activity (color reaction, percent of pre-D1 cleaved)",[2],the intensity of the color reaction is shown to be proportional to enzyme concentration up to approximately 20% of pre-D1 cleaved
"wheat D1 protease purified from wheat leaves (Triticum aestivum, var. Fidel) (protein) LTEENLLFLEAWRAVDRAYYDKSFNGQSWFRYRERALRDDPMNTRQETYAAIKKMLATLDDPFTRLLEPEKFKSLRSGTQGALTGVGLSIGYPLALKGSPAGLSVMSAAPGGPAEKAGIVSGDVILAIDDTSAQDMDIYDAADRLQGPEGSSIDLTILSGADTRHVVLKRERYTLNPVRSRMCEIPGSEDSSKIGYIKLTTFNQNAAGSVKEAIKKLREKNVKAFVLDLRNNSGGLFPEGIEIAKIWMDKGVIVYICDSRGVRDIYEADGASTIAASEPLVVLVNKGTASASEILAGALKDNKRAVVYGEPTYGKGKIQSVFALSDGSGLAVTVARYETPAHTDIDKVGVTPDRPLPASFPTDEDGFCSCLRDPASCNLNAARLFVRS","fluorescence intensity of the internally quenched substrate (excitation 320 nm, emission 409 nm)",[3],samples containing active enzyme were measured at 3000 fluorescence units
same,"Type1 AB and ATTOPHOS (Fluorescence intensity), With D1P",[2],1070 RU
same,"Type1 AB and PNP (Absorbance OD 450-650), With D1P",[2],0.365 OD
same,"Type2 AB and A6550 (Fluorescence intensity), With D1P",[2],263 RU
same,"Type2 AB and BM (Chemiluminescence intensity), With D1P",[2],33 RU
same,"Type2 AB and TMB (Absorbance at OD 650-450), With D1P",[2],0.141 OD
same,"fluorescamine fluorescence of the released C-terminal D1-tail, Well with D1 protease",[2],515 ± 10 relative units
"recombinant wheat D1 protease expressed in E. coli from pET-32a(+) (thioredoxin-D1 protease fusion, refolded) (protein) LTEENLLFLEAWRAVDRAYYDKSFNGQSWFRYRERALRDDPMNTRQETYAAIKKMLATLDDPFTRLLEPEKFKSLRSGTQGALTGVGLSIGYPLALKGSPAGLSVMSAAPGGPAEKAGIVSGDVILAIDDTSAQDMDIYDAADRLQGPEGSSIDLTILSGADTRHVVLKRERYTLNPVRSRMCEIPGSEDSSKIGYIKLTTFNQNAAGSVKEAIKKLREKNVKAFVLDLRNNSGGLFPEGIEIAKIWMDKGVIVYICDSRGVRDIYEADGASTIAASEPLVVLVNKGTASASEILAGALKDNKRAVVYGEPTYGKGKIQSVFALSDGSGLAVTVARYETPAHTDIDKVGVTPDRPLPASFPTDEDGFCSCLRDPASCNLNAARLFVRS",specific activity in the microtiter plate ELISA assay,[2],"The specific activity of the recombinant enzyme, expressed in relative units, is close to that of the natural enzyme isolated from wheat leaves"
